Measured values taken from patent US20200223889A1 (Novo Nordisk, published 2020).
Positions of bridges follow the written chain, without caps; N, C: chain ends. Non-standard residues stand in square brackets, D forms with d. Cit = NC(=O)NCCC[C@H](N)C(=O)O; Api = NC1(C(=O)O)CCNCC1; Aib = CC(C)(N)C(=O)O

Legend:
[1] = target: T1, human melanocortin 4 receptor (human, UniProt P32245 1-332); experiment: cell-based or functional assay
[2] = target: human melanocortin 1 receptor (human, UniProt Q01726 1-317); experiment: cell-based or functional assay
human melanocortin 1 receptor, sequence (Q01726 whole entry): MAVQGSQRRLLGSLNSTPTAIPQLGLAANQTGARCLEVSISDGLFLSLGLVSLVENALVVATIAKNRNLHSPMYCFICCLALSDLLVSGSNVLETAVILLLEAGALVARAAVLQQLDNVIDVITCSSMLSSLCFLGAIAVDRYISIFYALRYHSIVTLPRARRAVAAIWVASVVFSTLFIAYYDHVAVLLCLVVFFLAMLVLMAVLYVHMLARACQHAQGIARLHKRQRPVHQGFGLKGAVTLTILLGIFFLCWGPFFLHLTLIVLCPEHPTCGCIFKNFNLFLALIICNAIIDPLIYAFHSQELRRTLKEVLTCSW

[3] = target: T1, human melanocortin 4 receptor; experiment: competition with 125-NDP-α-MSH, BHK human MC4R membranes
Method in brief: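 Competition binding used membranes from BHK cells stably expressing human MC4R with ¹²⁵I-NDP-α-MSH (apx. […] final), compound at 1 μM–0.001 nM. Incubation was 2 h at 25 °C in HEPES pH 7.0 buffer with CaCl₂, MgSO₄, EGTA, Tween 20 and 0.1% HSA or ovalbumin. Filter-bound radioactivity was fitted by non-linear regression.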

T1 sequence (P32245 whole entry): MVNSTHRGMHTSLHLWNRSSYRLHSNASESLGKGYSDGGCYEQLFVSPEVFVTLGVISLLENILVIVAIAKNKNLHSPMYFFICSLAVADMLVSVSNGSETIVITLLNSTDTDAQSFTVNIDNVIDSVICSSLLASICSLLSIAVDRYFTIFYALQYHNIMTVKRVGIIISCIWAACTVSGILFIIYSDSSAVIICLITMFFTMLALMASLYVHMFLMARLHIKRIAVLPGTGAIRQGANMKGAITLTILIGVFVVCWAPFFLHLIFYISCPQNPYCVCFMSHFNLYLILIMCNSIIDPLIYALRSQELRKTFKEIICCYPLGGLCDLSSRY

B1: Chem. 42 (peptide)
peptide: CAHFXWCAHFXW
modifications: D-Phe 4, 10; AGP 5, 11; disulphide Cys1-Cys7; head-to-tail amide Cys1-Trp12
notes: also called c[c[Cys-Ala-His-D-Phe-AGP-Trp-Cys]-Ala-His-D-Phe-AGP-Trp]
Q: For B1, which “MC4R cAMP EC50” value [1] is on record?
A: Its value is greater than 1000 nM.

Q: And the “MC1R cAMP EC50” value [2]?
A: Its value is greater than 100 nM.

Q: And the Ki [3]?
A: Its Ki is 10000 nM.

B2: Chem. 48 (peptide)
peptide: cyclo(CAH[dF][Cit]WCAKKKW)
modifications: disulfide 1-7
SMILES: C[C@@H]1NC(=O)[C@@H]2CSSC[C@H](NC(=O)[C@H](Cc3c[nH]c4ccccc34)NC(=O)[C@H](CCCNC(N)=O)NC(=O)[C@@H](Cc3ccccc3)NC(=O)[C@H](Cc3c[nH]cn3)NC1=O)C(=O)N[C@@H](C)C(=O)N[C@@H](CCCCN)C(=O)N[C@@H](CCCCN)C(=O)N[C@@H](CCCCN)C(=O)N[C@@H](Cc1c[nH]c3ccccc13)C(=O)N2
notes: also called c[c[Cys-Ala-His-D-Phe-Cit-Trp-Cys]-Ala-Lys-Lys-Lys-Trp]
Q: B2 was tested. Which “MC4R cAMP EC50” value [1] did it give?
A: The value was 0.06 nM.

Q: And the “MC1R cAMP EC50” value [2]?
A: Its value is 9.14 nM.

Q: And the Ki [3]?
A: Its Ki is 0.15 nM.

B3: Chem. 49 (peptide)
peptide: cyclo(CH[dF]RWCH[dF]RW)
modifications: disulfide 1-6
SMILES: N=C(N)NCCC[C@@H]1NC(=O)[C@@H](Cc2ccccc2)NC(=O)[C@H](Cc2c[nH]cn2)NC(=O)[C@@H]2CSSC[C@H](NC(=O)[C@H](Cc3c[nH]c4ccccc34)NC1=O)C(=O)N[C@@H](Cc1c[nH]cn1)C(=O)N[C@H](Cc1ccccc1)C(=O)N[C@@H](CCCNC(=N)N)C(=O)N[C@@H](Cc1c[nH]c3ccccc13)C(=O)N2
notes: also called c[c[Cys-His-D-Phe-Arg-Trp-Cys]-His-D-Phe-Arg-Trp]
Q: B3 was tested. Which “MC4R cAMP EC50” value [1] did it give?
A: Its value is 1.28 nM.

Q: What about the “MC1R cAMP EC50” value [2] of the same binder?
A: The value was greater than 5.5 nM.

Q: What about the Ki [3] of the same binder?
A: Its Ki is 3.92 nM.

B4: Chem. 47 (peptide)
peptide: cyclo(C[Api]H[dF]RWC[Api]H[dF]RW)
modifications: disulfide 1-7
SMILES: N=C(N)NCCC[C@@H]1NC(=O)[C@@H](Cc2ccccc2)NC(=O)[C@H](Cc2c[nH]cn2)NC(=O)C2(CCNCC2)NC(=O)[C@@H]2CSSC[C@H](NC(=O)[C@H](Cc3c[nH]c4ccccc34)NC1=O)C(=O)NC1(CCNCC1)C(=O)N[C@@H](Cc1c[nH]cn1)C(=O)N[C@H](Cc1ccccc1)C(=O)N[C@@H](CCCNC(=N)N)C(=O)N[C@@H](Cc1c[nH]c3ccccc13)C(=O)N2
notes: also called c[c[Cys-ACP-His-D-Phe-Arg-Trp-Cys]-ACP-His-D-Phe-Arg-Trp]
Q: B4 was tested. Which “MC4R cAMP EC50” value [1] did it give?
A: The value was 0.12 nM.

Q: What about the “MC1R cAMP EC50” value [2] of the same binder?
A: The value was 2.79 nM.

Q: What about the Ki [3] of the same binder?
A: The Ki was 0.72 nM.

B5: Chem. 45 (peptide)
peptide: cyclo(CAH[dF][Cit]WCAEEEW)
modifications: disulfide 1-7
SMILES: C[C@@H]1NC(=O)[C@@H]2CSSC[C@H](NC(=O)[C@H](Cc3c[nH]c4ccccc34)NC(=O)[C@H](CCCNC(N)=O)NC(=O)[C@@H](Cc3ccccc3)NC(=O)[C@H](Cc3c[nH]cn3)NC1=O)C(=O)N[C@@H](C)C(=O)N[C@@H](CCC(=O)O)C(=O)N[C@@H](CCC(=O)O)C(=O)N[C@@H](CCC(=O)O)C(=O)N[C@@H](Cc1c[nH]c3ccccc13)C(=O)N2
notes: also called c[c[Cys-Ala-His-D-Phe-Cit-Trp-Cys]-Ala-Glu-Glu-Glu-Trp]
Q: B5 was tested. Which “MC4R cAMP EC50” value [1] did it give?
A: The value was 45.7 nM.

Q: And the “MC1R cAMP EC50” value [2]?
A: Its value is greater than 100 nM.

Q: What about the Ki [3] of the same binder?
A: Its Ki is 1000 nM.

B6: Chem. 37 (peptide)
peptide: CAHFXWCAHFXW
modifications: D-Phe 4, 10; N-MeArg 5, 11; disulphide Cys1-Cys7; head-to-tail amide Cys1-Trp12
notes: also called c[c[Cys-Ala-His-D-Phe-N-MeArg-Trp-Cys]-Ala-His-D-Phe-N-MeArg-Trp]
Q: B6 was tested. Which “MC4R cAMP EC50” value [1] did it give?
A: The value was 1.57 nM.

Q: And the “MC1R cAMP EC50” value [2]?
A: Its value is 13.1 nM.

Q: And the Ki [3]?
A: The Ki was 3.31 nM.

B7: Chem. 40 (peptide)
peptide: cyclo(C[Aib]H[dF]KWC[Aib]H[dF]KW)
modifications: disulfide 1-7
SMILES: CC1(C)NC(=O)[C@@H]2CSSC[C@H](NC(=O)[C@H](Cc3c[nH]c4ccccc34)NC(=O)[C@H](CCCCN)NC(=O)[C@@H](Cc3ccccc3)NC(=O)[C@H](Cc3c[nH]cn3)NC1=O)C(=O)NC(C)(C)C(=O)N[C@@H](Cc1c[nH]cn1)C(=O)N[C@H](Cc1ccccc1)C(=O)N[C@@H](CCCCN)C(=O)N[C@@H](Cc1c[nH]c3ccccc13)C(=O)N2
notes: also called c[c[Cys-Aib-His-D-Phe-Lys-Trp-Cys]-Aib-His-D-Phe-Lys-Trp]
Q: How did the “MC4R cAMP EC50” value [1] turn out when B7 was run?
A: Its value is 0.29 nM.

Q: What about the “MC1R cAMP EC50” value [2] of the same binder?
A: Its value is 11.1 nM.

Q: And the Ki [3]?
A: The Ki was 0.31 nM.

B8: Chem. 39 (peptide)
peptide: cyclo(C[Aib]P[dF]RWC[Aib]P[dF]RW)
modifications: disulfide 1-7
SMILES: CC1(C)NC(=O)[C@@H]2CSSC[C@H](NC(=O)[C@H](Cc3c[nH]c4ccccc34)NC(=O)[C@H](CCCNC(=N)N)NC(=O)[C@@H](Cc3ccccc3)NC(=O)[C@@H]3CCCN3C1=O)C(=O)NC(C)(C)C(=O)N1CCC[C@H]1C(=O)N[C@H](Cc1ccccc1)C(=O)N[C@@H](CCCNC(=N)N)C(=O)N[C@@H](Cc1c[nH]c3ccccc13)C(=O)N2
notes: also called c[c[Cys-Aib-Pro-D-Phe-Arg-Trp-Cys]-Aib-Pro-D-Phe-Arg-Trp]
Q: What does the source list for B8?
A: MC4R cAMP EC50 [1]: 1.54 nM; MC1R cAMP EC50 [2]: 56.4 nM; Ki [3]: 1.8 nM

B9: Chem. 36 (peptide)
peptide: cyclo(CVH[dF]RWCVH[dF]RW)
modifications: disulfide 1-7
SMILES: CC(C)[C@@H]1NC(=O)[C@@H]2CSSC[C@H](NC(=O)[C@H](Cc3c[nH]c4ccccc34)NC(=O)[C@H](CCCNC(=N)N)NC(=O)[C@@H](Cc3ccccc3)NC(=O)[C@H](Cc3c[nH]cn3)NC1=O)C(=O)N[C@@H](C(C)C)C(=O)N[C@@H](Cc1c[nH]cn1)C(=O)N[C@H](Cc1ccccc1)C(=O)N[C@@H](CCCNC(=N)N)C(=O)N[C@@H](Cc1c[nH]c3ccccc13)C(=O)N2
notes: also called c[c[Cys-Val-His-D-Phe-Arg-Trp-Cys]-Val-His-D-Phe-Arg-Trp]
Q: What does the source list for B9?
A: MC4R cAMP EC50 [1]: 0.04 nM; MC1R cAMP EC50 [2]: 1.05 nM; Ki [3]: 0.12 nM
